# Experimental data from patent publication US20210277067A1.
# Molecular target: HCMV pentameric complex gH/gL/pUL128/pUL130/pUL131A (wild type Pentamer) (HCMV strain Merlin) (UniProt Q6SW67)
# Assay: method not stated
substance,measurement,value
8I21 with HCDR3 Trp105 mutated to alanine (Fab),fold decrease in binding affinity (against unmutated 8I21),> 150 fold
